Measurements as given in patent publication EP1343909B1.

Molecular target: plasminogen
Assay: cell-based or functional assay

## Bacteriophages which harbored K2S on gp3 (K2S-φ) (from UniProt P00750 209-562)
  fibrinogen-dependent enzymatic activity (amidolytic assay with plasminogen and S-2251): < 0.25 IU/ml
